Experimental findings from PMC9726709, “Fluorescently tagged nanobodies and NanoBRET to study ligand-binding and agonist-induced conformational changes of full-length EGFR expressed in living cells” (Frontiers in Immunology, 2022) are described below.

Assay [1] deals with T1, N-terminal NanoLuc-tagged EGFR (NLuc-EGFR) (human, UniProt P00533 25-1210). Description: cell-based or functional assay.
Assay [2] has as its target T1, N-terminal NanoLuc-tagged EGFR …. As to conditions: one partner purified.
Assay [3] has the same target. Description: FRET or BRET; NanoBRET displacement of 3 nM EGF-AF488 by unlabelled EGFR ligands on living HEK293 cells expressing NLuc-EGFR; added simultaneously, 30 min at 37 °C; HBSS with 0.2% BSA; Ki from IC50 by Cheng-Prusoff; pKi is the negative log10. As to conditions: one partner purified.

B1: human recombinant betacellulin (ligand, UniProt P35070 32-111, looked up)
chain: DGNSTRSPETNGLLCGDPEENCAATTTQSKRKGHFSRCPKQYKHYCIKGRCRFVVAEQTPSCVCDEGYIGARCERVDLFY
notes: Betacellulin, human, recombinant; also called BTC; source: bought: R&D Systems (261-CE-010)
B1: in assay [1], the “pEC50 for enhancement of the specific binding of 12.5 nM Q86c-HL488 (conformational sensor nanobody) to NLuc-EGFR, NanoBRET on HEK293 cells” value is 9.17. Moreover, the pIC50 in assay [2] is 9.02. In assay [3], this molecule displayed a pKi of 8.45.

B2: heparin binding EGF-like growth factor (ligand, UniProt Q99075 63-148, looked up)
chain: DLQEADLDLLRVTLSSKPQALATPNKEEHGKRKKKGKGLGKKRDPCLRKYKDFCIHGECKYVKELRAPSCICHPGYHGERCHGLSL
notes: the other ligands are human recombinant proteins from R&D Systems; also called HB-EGF; Hb-EGF
On to B2, for which, in assay [1], the “pEC50 for enhancement of the specific binding of 12.5 nM Q86c-HL488 (conformational sensor nanobody) to NLuc-EGFR, NanoBRET on HEK293 cells” value came out at 9.2. In addition, the pIC50 in assay [2] was 8.8. The molecule also returned a negative logarithm of the Ki (pKi) in assay [3] of 8.43.
